Measured values reported in paper PMC12733253, “NFE2 Truncation Mutants Protect Wild-Type NFE2 from ITCH-Dependent Degradation” (International Journal of Molecular Sciences, 2025).

Target: itchy E3 ubiquitin protein ligase (ITCH), wild type, MYC-tagged (UniProt Q96J02-2 1-862)
Test: cell-based or functional assay

Chain of itchy E3 ubiquitin protein ligase (ITCH), wild type, MYC-tagged (Q96J02 other isoform, or with tags, fused parts or gaps): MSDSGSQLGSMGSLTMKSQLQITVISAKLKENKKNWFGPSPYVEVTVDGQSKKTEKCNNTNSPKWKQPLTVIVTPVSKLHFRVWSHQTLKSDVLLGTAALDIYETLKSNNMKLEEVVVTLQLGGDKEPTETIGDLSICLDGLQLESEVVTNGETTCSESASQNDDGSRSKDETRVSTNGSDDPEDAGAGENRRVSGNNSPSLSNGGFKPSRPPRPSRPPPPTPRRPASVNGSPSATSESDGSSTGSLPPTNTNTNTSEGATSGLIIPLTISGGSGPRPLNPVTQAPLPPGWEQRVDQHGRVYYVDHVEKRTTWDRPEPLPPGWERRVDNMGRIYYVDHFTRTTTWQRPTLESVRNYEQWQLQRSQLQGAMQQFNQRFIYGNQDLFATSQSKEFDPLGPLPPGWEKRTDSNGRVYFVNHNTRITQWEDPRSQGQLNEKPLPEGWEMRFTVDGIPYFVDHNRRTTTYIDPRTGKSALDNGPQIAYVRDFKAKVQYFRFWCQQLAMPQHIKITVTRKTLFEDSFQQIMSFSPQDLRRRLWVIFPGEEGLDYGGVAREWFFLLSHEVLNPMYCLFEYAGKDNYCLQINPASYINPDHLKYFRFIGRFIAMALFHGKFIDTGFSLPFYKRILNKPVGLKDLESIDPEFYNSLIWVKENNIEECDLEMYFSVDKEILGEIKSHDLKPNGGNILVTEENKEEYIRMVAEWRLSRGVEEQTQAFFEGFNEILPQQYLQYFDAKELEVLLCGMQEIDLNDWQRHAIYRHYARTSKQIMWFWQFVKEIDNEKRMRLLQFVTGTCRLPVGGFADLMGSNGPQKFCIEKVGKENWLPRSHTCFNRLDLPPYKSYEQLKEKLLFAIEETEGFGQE

B1: wild-type nuclear factor erythroid 2 (NFE2), HA-tagged (natural protein, human, UniProt Q16621 1-373, looked up)
chain: MSPCPPQQSRNRVIQLSTSELGEMELTWQEIMSITELQGLNAPSEPSFEPQAPAPYLGPPPPTTYCPCSIHPDSGFPLPPPPYELPASTSHVPDPPYSYGNMAIPVSKPLSLSGLLSEPLQDPLALLDIGLPAGPPKPQEDPESDSGLSLNYSDAESLELEGTEAGRRRSEYVEMYPVEYPYSLMPNSLAHSNYTLPAAETPLALEPSSGPVRAKPTARGEAGSRDERRALAMKIPFPTDKIVNLPVDDFNELLARYPLTESQLALVRDIRRRGKNKVAAQNCRKRKLETIVQLERELERLTNERERLLRARGEADRTLEVMRQQLTELYRDIFQHLRDESGNSYSPEEYALQQAADGTIFLVPRGTKMEATD
  NFE2 half-life in a cycloheximide chase, HEK-293T co-transfected with wt NFE2 and wt ITCH (approximately 3.5 h with empty vector; 6.5 h with inactive ITCH-C830A): ~2 h
